Source: US12365732 (23ANDME, dated 2025)
Positions count from the first letter of the chain named. In names and notes the source's numbering stands.

T1: hu-CD96 isoform 1 on HEK293T cells (human, UniProt P40200 22-585)
T1 construct: Origene RC213845, transient expression; also called HEK293T-CD96 (iso1)
T1 sequence: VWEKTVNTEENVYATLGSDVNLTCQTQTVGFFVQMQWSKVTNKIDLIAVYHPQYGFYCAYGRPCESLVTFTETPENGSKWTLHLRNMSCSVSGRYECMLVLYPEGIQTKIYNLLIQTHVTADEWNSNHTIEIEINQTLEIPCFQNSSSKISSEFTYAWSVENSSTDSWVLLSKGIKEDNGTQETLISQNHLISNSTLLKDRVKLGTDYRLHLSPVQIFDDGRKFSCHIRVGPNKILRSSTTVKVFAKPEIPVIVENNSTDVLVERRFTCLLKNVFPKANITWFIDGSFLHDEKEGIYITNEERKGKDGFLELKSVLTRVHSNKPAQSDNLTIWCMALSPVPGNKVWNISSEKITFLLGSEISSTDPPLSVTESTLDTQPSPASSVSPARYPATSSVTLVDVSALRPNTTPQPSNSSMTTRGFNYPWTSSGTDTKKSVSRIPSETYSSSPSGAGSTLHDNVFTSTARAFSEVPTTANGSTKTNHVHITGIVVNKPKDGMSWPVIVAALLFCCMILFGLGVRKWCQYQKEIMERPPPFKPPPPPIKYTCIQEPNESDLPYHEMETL

T2: hu-CD96 isoform 2 on CHO cells (human, UniProt P40200 22-585)
T2 construct: also called CHO-CD96 (isoform 2); CD96-CHOs
T2 sequence: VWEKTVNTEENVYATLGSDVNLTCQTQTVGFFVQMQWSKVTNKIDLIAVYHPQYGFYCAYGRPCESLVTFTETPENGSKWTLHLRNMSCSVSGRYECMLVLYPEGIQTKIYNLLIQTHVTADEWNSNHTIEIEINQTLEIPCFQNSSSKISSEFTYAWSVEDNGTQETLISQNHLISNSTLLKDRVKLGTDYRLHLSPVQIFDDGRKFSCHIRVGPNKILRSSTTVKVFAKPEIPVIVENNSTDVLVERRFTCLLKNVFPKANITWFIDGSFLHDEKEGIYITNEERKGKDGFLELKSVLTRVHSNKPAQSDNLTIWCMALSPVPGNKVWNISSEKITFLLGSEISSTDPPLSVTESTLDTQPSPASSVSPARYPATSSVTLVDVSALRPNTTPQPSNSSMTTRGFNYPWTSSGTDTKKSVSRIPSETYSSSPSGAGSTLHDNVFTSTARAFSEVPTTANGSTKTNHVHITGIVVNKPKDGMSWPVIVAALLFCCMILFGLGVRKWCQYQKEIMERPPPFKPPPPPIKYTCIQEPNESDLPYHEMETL

T3: cynomolgus monkey CD96 on cynomolgus monkey PBMCs (cynomolgus monkey, UniProt A0A2K5TWV6 22-569)
T3 construct: whole, on cells
T3 sequence: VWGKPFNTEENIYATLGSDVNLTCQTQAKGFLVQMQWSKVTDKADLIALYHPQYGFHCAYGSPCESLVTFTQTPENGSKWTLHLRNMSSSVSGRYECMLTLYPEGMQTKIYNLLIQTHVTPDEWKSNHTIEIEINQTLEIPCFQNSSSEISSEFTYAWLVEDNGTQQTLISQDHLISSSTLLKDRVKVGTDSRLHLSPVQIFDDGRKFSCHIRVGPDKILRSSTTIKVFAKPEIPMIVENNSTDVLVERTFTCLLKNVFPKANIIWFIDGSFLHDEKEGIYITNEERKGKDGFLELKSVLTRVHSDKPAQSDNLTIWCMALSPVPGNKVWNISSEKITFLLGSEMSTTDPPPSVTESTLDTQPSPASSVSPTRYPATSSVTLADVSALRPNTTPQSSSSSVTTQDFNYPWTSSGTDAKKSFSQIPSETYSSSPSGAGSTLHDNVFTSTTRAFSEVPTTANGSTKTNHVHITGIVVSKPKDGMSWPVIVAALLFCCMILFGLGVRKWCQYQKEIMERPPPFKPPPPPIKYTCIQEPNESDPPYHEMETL

B1: mAb1.v7 IgG (humanized 12F8) (antibody, V domains shown)
VH: EVQLVQSGAEVKKPGASVKVSCKASGFTFTNNWMHWVRQAPGQGLEWIGMIHPNSGITNINEKFKNRVTMTTDTSTSTAYMELRSLRSEDTAVYYCRSDGTYEGYFDYWGQGTLVTVSS
VL: DIQLTQSPSSLSASVGDRVTITCKASQNVGTAIVWYQQKPGKAPKVLIYSASTRYTGVPSRFSGSGSGTDFTLTISSLQPEDFATYYCQQYSSSPLTFGQGTKVEIKG
notes: human IgG1 N297G
B2: mAb1.v7.NGS9 IgG (antibody, V domains shown)
VH: B1 VH with W33F, P53A, T101V
VL: B1 VL
notes: human IgG1 N297G
B3: mAb1.v7.NGS11 IgG (antibody, V domains shown)
VH: B1 VH with W33F, M50F, P53A, T101V
VL: B1 VL
notes: human IgG1 N297G
B4: mAb1.v7.NGS10 IgG (antibody, V domains shown)
VH: B1 VH with W33F, M50F, P53A, T101I
VL: B1 VL
notes: human IgG1 N297G
B5: 9H4, purified hybridoma antibody (antibody, V domains shown)
VH: EVQLLETGGGLVKSGGSLKLSCAASGFTFSDYYMYWVRQTPEKRLEWVAAISDDGTYTYYPDSVKGRFTISRDNANNYLYLQMSSLKSEDTAIYYCAKAGSYDYFDVWGAGTTVTVSS
VL: DIVLTQSPASLAVSLGQRAIISCKASQSVTFADTGLMHWYQQKPGQQPKLLIYRASNLEVGVPTRFSGSGSGTDFTLNIHPVEEEDVATYYCQQSREYPWTFGGGTKLEIK
notes: murine hybridoma IgG
B6: 10G1 (clone 10G1.3G8), purified hybridoma antibody (antibody, V domains shown)
VH: QIQLVQSGPELKKPGETVKISCKASGYPFTTYGMSWVKQAPGKGLKWMGWINTDSGVPTYADDFKGRFAFSLETSANTAYLQINSLKNEDAATYFCARNIYYGWGNFDYWGQGTILTVSS
VL: DILMTQSPTTLSVTPGETVSLSCRASQDIYRNLHWYQQKSQGTPRLLIKHASDSISGIPSRFTGSGSGTDFTLSINSVKPEDEGIYYCLQGYSMPYTFGGGTKLEIK
notes: murine hybridoma IgG
B7: 7E5, purified hybridoma antibody (antibody, V domains shown)
VH: QVQLKESGPGLVAPSQSLSIICTVSGFSLTNYGIHWIRQPPGKGLEWLGIIWAGGSTNYNSALMSRLTISKDNSKSQVFLKMNSLQTNDTAIYYCARVSMMGFAYWGQGTLVTVSA
VL: QAVVTQESALTTSPGETVTLTCRSSTGAVTTSNYANWVQEKPDHLFTGLIGGTNNRAPGVPARFSGSLIGDKAALTITGAQTEDEAIYFCSLWYGSHWVFGGGTKLTVL
notes: murine hybridoma IgG
B8: h10G1 IgG (humanized 10G1) (antibody, V domains shown)
VH: EIQLVQSGSELKKPGASVKVSCKASGYPFTTYGMSWVRQAPGQGLEWMGWINTDSGVPTYADDFKGRFVFSLDTSVSTAYLQISSLKAEDTAVYFCARNIYYGWGNFDYWGQGTLVTVSS
VL: EIVMTQSPDFQSVTPKEKVTITCRASQDIYRNLHWYQQKPDQTPKLLIKHASDSISGIPSRFSGSGSGTDFTLTINSLEAEDAAAYYCLQGYSMPYTFGGGTKVEIKG
notes: human IgG1 N297G

Experiments:
[1] = target: T1, hu-CD96 isoform 1 on HEK293T cells; experiment: FACS, Ab 0.4 nM
Procedure: (§1) Isoform 1 of hu-CD96 (Origene, catalog #RC213845) was transiently expressed in HEK293T cells following standard lipofectamine or Fugene transfection protocol. […] Cells were washed, and binding was detected by incubation with anti-mouse IgG-FITC (Biolegend, catalog #406001) for 20 minutes at 4° C. Cell binding was analyzed by flow cytometry with a CytoFLEX (Beckman Coulter). Binding curves were calculated as a percentage of cells positive for bound antibody.

[2] = target: T2, hu-CD96 isoform 2 on CHO cells; experiment: FACS, Ab 10 nM
Procedure: as §1
Isoform 2 of hu-CD96 (DNA construct: Origene, catalog #RC221005) was expressed on a single-cell-clone-derived CHO stable cell line. Binding of the anti-CD96 antibodies to the CHO cells were determined as described above with isoform 1 of hu-CD96.

[3] = target: T3, cynomolgus monkey CD96 on cynomolgus …; experiment: FACS, Ab 3.2 nM
Procedure: The ability of the anti-CD96 antibodies to bind primary immune cells from human and cynomolgus monkey with lower level of receptor expression was measured. Human PBMCs (StemCell Technologies, catalog #70025) and cynomolgus monkey PBMCs (Primate Biologicals, catalog #CM-MC) were incubated with human TruStain FcX (Biolegend, catalog #422302) for 10 minutes at 4° C., followed by incubation with an anti-CD96 antibody for 20 minutes at 4° C. Cells were washed and the anti-CD96 antibody binding was detected by incubation with anti-mouse IgG-PE (Thermo Fisher, catalog #M30204) or anti-human IgG (Fab) 2-PE (Thermo Fisher, catalog #H10104) for 20 minutes at 4° C. Cells were washed, and immune subtypes were labeled with anti-CD3 (BD, catalog #557705), anti-CD4 (Biolegend, catalog #317424) and anti-CD8 (BD, catalog #557760) for 20 minutes at 4° C. Cell binding was analyzed by flow cytometry with a CytoFLEX (Beckman Coulter). Binding curves were calculated as a percentage of cells positive for bound antibody in the cell type of interest.

Binder | % positive [1] [%] | % positive [2] [%] | % positive [3] [%]
B1 | 12.2 | 44.8 | 
B2 |  |  | 77.9
B3 |  |  | 78.4
B4 |  |  | 76.7
B5 | 13.9 | 46.1 | 
B6 | 34.6 | 39.2 | 
B7 | 20.4 | 56.1 | 
B8 |  |  | 58.1
